Reference: IntAct's records for PubMed 10488108

B1: E3 ubiquitin-protein ligase COP1 (Arabidopsis thaliana (Mouse-ear cress)), P43254 (parent)
chain: MEEISTDPVVPAVKPDPRTSSVGEGANRHENDDGGSGGSEIGAPDLDKDLLCPICMQIIKDAFLTACGHSFCYMCIITHLRNKSDCPCCSQHLTNNQLYPNFLLDKLLKKTSARHVSKTASPLDQFREALQRGCDVSIKEVDNLLTLLAERKRKMEQEEAERNMQILLDFLHCLRKQKVDELNEVQTDLQYIKEDINAVERHRIDLYRARDRYSVKLRMLGDDPSTRNAWPHEKNQIGFNSNSLSIRGGNFVGNYQNKKVEGKAQGSSHGLPKKDALSGSDSQSLNQSTVSMARKKRIHAQFNDLQECYLQKRRQLADQPNSKQENDKSVVRREGYSNGLADFQSVLTTFTRYSRLRVIAEIRHGDIFHSANIVSSIEFDRDDELFATAGVSRCIKVFDFSSVVNEPADMQCPIVEMSTRSKLSCLSWNKHEKNHIASSDYEGIVTVWDVTTRQSLMEYEEHEKRAWSVDFSRTEPSMLVSGSDDCKVKVWCTRQEASVINIDMKANICCVKYNPGSSNYIAVGSADHHIHYYDLRNISQPLHVFSGHKKAVSYVKFLSNNELASASTDSTLRLWDVKDNLPVRTFRGHTNEKNFVGLTVNSEYLACGSETNEVYVYHKEITRPVTSHRFGSPDMDDAEEEAGSYFISAVCWKSDSPTMLTANSQGTIKVLVLAA
partner: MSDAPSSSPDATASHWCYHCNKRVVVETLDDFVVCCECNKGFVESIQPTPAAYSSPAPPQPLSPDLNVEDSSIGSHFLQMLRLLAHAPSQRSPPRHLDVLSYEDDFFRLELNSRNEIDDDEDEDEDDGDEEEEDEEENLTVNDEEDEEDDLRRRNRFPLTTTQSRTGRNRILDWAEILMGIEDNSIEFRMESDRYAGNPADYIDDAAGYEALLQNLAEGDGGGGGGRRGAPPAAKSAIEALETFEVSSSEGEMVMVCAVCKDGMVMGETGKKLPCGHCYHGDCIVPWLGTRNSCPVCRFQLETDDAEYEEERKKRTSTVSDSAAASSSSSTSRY
B2: E3 ubiquitin-protein ligase CIP8 (Arabidopsis thaliana (Mouse-ear cress)), Q9SPL2 (parent)
chain: B1 partner
partner: B1 chain

Variants of: B1
Settings: with cip8_arath CIP8, Q9SPL2

Row | effect of a mutation on the interaction | Variant
1 | disrupting interaction | C67A;H69A;C72A;C75A

Variants of: B2
Settings: with cop1_arath COP1, P43254

Row | effect of a mutation on the interaction | Variant
2 | disrupting interaction | MSDAPSSSPDATASHWCYHCNKRVVVETLDDFVVCCECNKGFVESIQPTPAAYSSPAPPQPLSPDLNVEDSSIGSHFLQMLRLLAHAPSQRSPPRHLDVLSYEDDFFRLELNSRNEIDDDEDEDEDDGDEEEEDEEENLTVNDEEDEEDDLRRRNRFPLTTTQSRTGRNRILDWAEILMGIEDNSIEFRMESDRYAGNPADYIDDAAGYEALLQNLAEGDGGGGGGRRGAPPAAKSAIEALETFEVSSSEGEMVMVCAVCKDGMVMGETGKKLPAGACYAGDAIVPWLGTRNSCPVCRFQLETDDAEYEEERKKRTSTVSDSAAASSSSSTSRY [C275A;H277A;H280A;C283A]
